To fix the notation:
T1: His-tagged recombinant Human TIGIT (human, UniProt Q495A1 22-141)
T1 construct: also called VSIG9; VSTM3; not shown: His tag
T1 sequence (looked up): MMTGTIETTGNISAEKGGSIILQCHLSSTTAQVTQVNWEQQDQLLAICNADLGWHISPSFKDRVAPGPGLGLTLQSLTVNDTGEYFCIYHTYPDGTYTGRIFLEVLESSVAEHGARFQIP

T2: His-tagged recombinant Mouse TIGIT (mouse, UniProt P86176 29-148, limits assumed)
T2 construct: not shown: His tag
T2 sequence (looked up): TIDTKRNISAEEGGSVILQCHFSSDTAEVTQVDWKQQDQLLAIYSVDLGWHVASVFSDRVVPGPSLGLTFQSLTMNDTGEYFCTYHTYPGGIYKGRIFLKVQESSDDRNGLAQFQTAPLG

T3: human TIGIT fused to a beta galactosidase portion, on YTS cells (YTS_hTIGIT/hGrb2) (human, UniProt Q495A1 22-244)
T3 sequence (looked up): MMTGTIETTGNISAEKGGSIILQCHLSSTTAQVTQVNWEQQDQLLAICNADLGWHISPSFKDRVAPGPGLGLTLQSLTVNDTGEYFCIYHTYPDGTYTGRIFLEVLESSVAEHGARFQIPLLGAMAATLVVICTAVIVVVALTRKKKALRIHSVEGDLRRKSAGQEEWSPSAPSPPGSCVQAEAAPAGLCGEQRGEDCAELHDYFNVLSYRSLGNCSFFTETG

B1: Ab165 (Fab, V domains shown)
VH: EVQLLESGGGLVQPGGSLRLSCAASGFTFSSYAMSWVRQAPGKGLEWVAAIKSSTGTIYYADSVKGRFTISRDNSKNTLYLQMNSLRAEDTAVYYCAREPYSVWLDYWGQGTLVTVSS
VL: not shown
notes: ARE set
B2: Ab172 (Fab, V domains shown)
VH: EVQLLESGGGLVQPGGSLRLSCAASGFTFSSYSMHWVRQAPGKGLEWVSSIKSSAGYTYYADSVKGRFTISRDNSKNTLYLQMNSLRAEDTAVYYCARVPYDYWIDYWGQGTLVTVSS
VL: not shown
notes: ARV set
B3: Ab185 (Fab, V domains shown)
VH: B1 VH with S54N, T55A, T57S, I58S, V103Y
VL: not shown
notes: ARE set
B4: Ab74 (Fab, V domains shown)
VH: B2 VH with S49A, K52S, S54N, Y57T, Y59G
VL: not shown
notes: ARV set
B5: Ab169 (Fab, V domains shown)
VH: B2 VH with S49A, S54D, A55T, G56S, Y57S
VL: not shown
notes: ARV set
B6: Ab48 (Fab, V domains shown)
VH: B2 VH with H35N, S49A, S50N, A55G, G56S, Y57S, Y59S, V99G, Y103V, I105M
VL: not shown
notes: ARG set; also called clone Ab48
B7: Ab175 (Fab, V domains shown)
VH: B2 VH with S50A, K52N, S54N, Y57S, T58S, Y59S, D102G, Y103V, I105M
VL: not shown
notes: ARV set
B8: Ab32 (Fab, V domains shown)
VH: B2 VH with S49A, S50N, K52N, S54N, A55G, Y57N, Y59G, Y103V, I105M
VL: not shown
notes: ARV set
B9: Ab28 (Fab, V domains shown)
VH: B2 VH with S49A, S50N, K52N, S54N, A55G, Y57N, Y59G, Y103V, I105M
VL: not shown
notes: ARV set
B10: Ab95 (Fab, V domains shown)
VH: B1 VH with A50S, T57Y, Y59G, V103Y
VL: not shown
notes: ARE set
B11: Ab46 (Fab, V domains shown)
VH: B2 VH with S49A, S50G, K52W, A55G, Y57T, Y59S, D102G, Y103V, I105M
VL: not shown
notes: ARV set
B12: Ab41 (Fab, V domains shown)
VH: B2 VH with S49A, A55G, T58I, Y59S, I105M
VL: not shown
notes: ARV set
B13: Ab131 (Fab, V domains shown)
VH: B2 VH with S33A, H35S, S50D, Y57S, Y59S, D102S, Y103V
VL: not shown
notes: ARV set
B14: Ab145 (Fab, V domains shown)
VH: B1 VH with A50S, K52S, T57Y, I58T, Y59S, V103Y
VL: not shown
notes: ARE set
B15: Ab148 (Fab, V domains shown)
VH: B2 VH with H35S, S49A, S53G, T58I, I105M
VL: not shown
notes: ARV set
B16: Ab47 (Fab, V domains shown)
VH: B2 VH with H35N, S49A, A55S, G56S, Y59S, V99G, Y103T, I105L
VL: not shown
notes: ARG set
B17: Ab49 (Fab, V domains shown)
VH: B2 VH with S49A, A55G, T58K, Y59S, V99G, Y103V
VL: not shown
notes: ARG set
B18: Ab143 (Fab, V domains shown)
VH: B2 VH with S49A, S50A, K52N, S54N, Y57S, T58S, Y59S, D102G, Y103V, I105M
VL: not shown
notes: ARV set; also called clone Ab143
B19: Ab7 (Fab, V domains shown)
VH: B1 VH with A50S, T55S, G56S, T57S, Y59S, V103Y
VL: not shown
notes: ARE set
B20: Ab1 (Fab, V domains shown)
VH: B2 VH with S33A, S50G, K52S, S54N, A55G, Y57S, Y59S, D102S, Y103V
VL: not shown
notes: ARV set; also called clone Ab1
B21: Ab157 (Fab, V domains shown)
VH: B2 VH with H35N, S49A, K52N, S54N, Y57S, I105M
VL: not shown
notes: ARV set
B22: Ab155 (Fab, V domains shown)
VH: B1 VH with A33S, S35N, K52S, S53G, S54D, I58S, Y59G
VL: not shown
notes: ARE set
B23: Ab76 (Fab, V domains shown)
VH: B2 VH with S30D, S50A, K52S, S53G, A55G, Y57S, D102S, Y103V
VL: not shown
notes: ARV set
B24: Ab124 (Fab, V domains shown)
VH: B2 VH with S49A, S53G, G56S, T58S, I105M
VL: not shown
notes: ARV set
B25: Ab23 (Fab, V domains shown)
VH: B1 VH with A50R, K52N, S54D, T55S, G56S, T57N, I58T, V103Y
VL: not shown
notes: ARE set
B26: Ab179 (Fab, V domains shown)
VH: B1 VH with A50S, S54N, T57S, I58T
VL: not shown
notes: ARE set
B27: Ab19 (Fab, V domains shown)
VH: B1 VH with A33S, A50N, S54N, T55S, T57Y, I58T
VL: not shown
notes: ARE set
B28: Ab72 (Fab, V domains shown)
VH: B2 VH with S49A, S50A, S54D, Y57T, T58S, Y59G
VL: not shown
notes: ARV set
B29: Ab153 (Fab, V domains shown)
VH: B2 VH with K52N, S54N, Y57T, T58I, Y59S
VL: not shown
notes: ARV set
B30: Ab197 (Fab, V domains shown)
VH: B2 VH with S49A, S50Y, S53G, Y57S, Y59S, D102G, Y103V, I105M
VL: not shown
notes: ARV set
B31: Ab191 (Fab, V domains shown)
VH: B2 VH with G56S, T58S, Y59S, I105M
VL: not shown
notes: ARV set
B32: Ab54 (Fab, V domains shown)
VH: B1 VH with A49S, A50S, S54N, T57S, I58T, Y59S, V103Y
VL: not shown
notes: ARE set
B33: Ab1i1 (antibody, V domains shown)
VH: B2 VH with S33A, S50G, K52S, S54N, A55G, Y57S, Y59S, D102S, Y103V
VL: not shown

Substitutions are numbered along the chain they refer to.

One assay concerns the target T1, His-tagged recombinant Human TIGIT. Kind of assay: ELISA, coated His-tagged human TIGIT. As for the experimental part:
(§1) Binding affinities for antigen binding to anti-TIGIT monoclonal antibodies were determined by ELISA. […] Antibodies to be tested were diluted to 1 μM in PBS buffer containing 1% BSA and diluted 3-fold in a 10-point curve. […] Detection of the secondary antibody was determined using streptavidin-HRP and TMB reagent. All assays were performed at room temperature. Curve-fitting software was used to determine the EC₅₀ for each antibody.
For orientation: ELISA stands for enzyme-linked immunosorbent assay.
Broadly, the EC50 is the concentration giving half of the maximal effect. For B1, the EC50 stood at 12.8 nM.
Still for that read-out and setting: the result for B2 reads 83.2 nM; that for B3, 81.7 nM; that for B4, 177 nM.
Same read-out and setting: under B5 stands 153 nM.
Still for that read-out and setting: under B6 stands 13.8 nM; under B7, 5.2 nM.
For the molecule B8, the EC50 came to 4.3 nM.
On the same count and under the same terms, the result for B9 reads 7.5 nM.
On the same count and under the same terms, the result for B10 reads 357 nM; that for B11, 8.2 nM; that for B12, 11 nM.
For B13, the EC50 came to 7.2 nM.
Same read-out and setting: under B14 stands 232 nM; under B15, 168 nM; under B16, 34.9 nM.
The same measure, in the same setting: the result for B17 reads 27.6 nM; that for B18, 3.4 nM.
Still for that read-out and setting: the result for B19 reads 14.6 nM.
For B20, the EC50 came out at 40.3 nM.
The same measure, in the same setting: the result for B21 reads 165 nM; that for B22, 32.8 nM.
On the same count and under the same terms, under B23 stands 68.1 nM.
On the same count and under the same terms, the result for B24 reads 34.3 nM.
On to B25, for which the half-maximal effective concentration (EC50) is 289 nM.
With B26, the EC50 was 155 nM.
On the same count and under the same terms, under B27 stands 19.8 nM; under B28, 81.7 nM.
As for B29, the EC50 amounted to 87.7 nM.
The same measure, in the same setting: under B30 stands 11.1 nM; under B31, 44.9 nM; under B32, 91.9 nM.

The target in another assay is T2, His-tagged recombinant Mouse TIGIT. The experiment in a line: ELISA, coated His-tagged mouse TIGIT. As for the experimental part: as §1
With B1, the EC50 was 228 nM.
Regarding B2, the EC50 came to 108 nM.
Consider B3, for which the EC50 was 101 nM.
Turning to B4, the concentration giving a half-maximal response (EC50) worked out at 41.9 nM.
As to B5, the concentration giving a half-maximal response (EC50) worked out at 110 nM.
On the same count and under the same terms, the result for B6 reads 41.8 nM; that for B7, 39.3 nM.
The same measure, in the same setting: the result for B8 reads 14.7 nM; that for B9, 28.7 nM.
B10: the EC50 turned out to be 100 nM.
The same measure, in the same setting: the result for B11 reads 95 nM; that for B12, 9.5 nM.
On the same count and under the same terms, under B13 stands 331 nM.
On the same count and under the same terms, the result for B14 reads 50.4 nM.
Regarding B15, the half-maximal effective concentration (EC50) worked out at 16.4 nM.
On the same count and under the same terms, the result for B16 reads 361 nM; that for B17, 58 nM; that for B18, 5.7 nM.
Same read-out and setting: the result for B19 reads 11.5 nM.
Same read-out and setting: under B20 stands 181 nM; under B21, 116 nM; under B22, 234 nM.
Turning to B23, the 50% effective concentration (EC50) is 65.7 nM.
Same read-out and setting: the result for B24 reads 14.1 nM.
Still for that read-out and setting: under B25 stands 74.4 nM.
The same measure, in the same setting: under B26 stands 228 nM.
B27: the concentration for a half-maximal effect (EC50) came to 64.8 nM.
Still for that read-out and setting: under B28 stands 235 nM; under B29, 13.9 nM.
Still for that read-out and setting: the result for B30 reads 81.4 nM; that for B31, 104 nM.
On the same count and under the same terms, under B32 stands 21.5 nM.

A further assay concerns the target T3, human TIGIT fused to a beta …. Kind of assay: cell-based or functional assay.
B33: the “YTS_hTIGI/hGrbs_EFC_Agonism, 221_WT” value was found to be 0.0091 µM and the “YTS_hTIGI/hGrbs_EFC_Antagonism, 221_hPVR/ICAM” value is above 1 µM.

For the origin of these results see US20200339678A1 (RIGEL PHARMACEUTICALS, published 2020).
